This test deals with Abraxane (Homo sapiens, UniProt P02768). In words: Bio-layer interferometry (BLItz) binding affinity of OKT3 and Abraxane. As for the experimental part:
To understand the characteristics of the nanoparticles formed when binding OKT3 to Abraxane, the binding affinity of the complex was determined by a Bio-layer interferometry (BLItz) assay, which is an optical technology that uses interference of white light reflection to determine binding affinities of 2 proteins
In a BLItz assay, if the 2 proteins bind, the reflected light changes wavelength in a manner that correlates to the binding affinity of the 2 proteins. Here biotinylated OKT3 at 100 ug/ml was immobilized on a streptavidin-containing probe and exposed to Abraxane at 2 concentrations-500 ug/ml (Run 2) and 1000 ug/ml (Run 3)
In the case of the anti-human CD3 antibody (OKT3) and Abraxane, biotinylated OKT3 at 100 ug/ml was immobilized on a streptavidin-containing probe. The OKT3 bearing probe was then immersed in Abraxane at 2 concentrations, 500 ug/ml and 1000 ug/ml (Run 2 and Run 3). […] The association and dissociation constants on the proteins were calculated by the BLItz software.
Background: BLI is a label-free optical method that tracks binding on a fibre tip over time.

We go through one substance from patent US11160876B2, “Methods and compositions for targeting t-cell cancers” (Mayo Foundation for Medical Education and Research, priority 2016, dated 2021).

Usually Kd stands for the constant that tells how readily two partners part at equilibrium. Take muromonab-CD3 [OKT3]: the “binding of Abraxane to immobilized OKT3” value (OKT3 bearing probe immersed in Abraxane at 500 ug/ml and 1000 ug/ml (Run 2 and Run 3)) is “concentration dependent manner”. Moreover, the Kd (biotinylated OKT3 at 100 ug/ml immobilized on streptavidin-containing probe, Abraxane at 500 ug/ml and 1000 ug/ml, calculated by BLItz software, read-out: dissociation constant (Kd) of OKT3 and Abraxane) is 2.25 nM.
